Where a chain is given by its changes, count along the chain named. In names and notes the source's numbering stands.
B1: ULK3: human serine/threonine kinase, 472 amino acids (SEQ ID NO: 1), overexpressed from cloned cDNA or immunopurified FLAG-tagged (protein, listed as Homo sapiens)
chain: MAGPGWGPPRLDGFILTERLGSGTYATVYKAYAKKDTREVVAIKCVAKKSLNKASVENLLTEIEILKGIRHPHIVQLKDFQWDSDNIYLIMEFCAGGDLSRFIHTRRILPEKVARVFMQQLASALQFLHERNISHLDLKPQNILLSSLEKPHLKLADFGFAQHMSPWDEKHVLRGSPLYMAPEMVCQRQYDARVDLWSMGVILYEALFGQPPFASRSFSELEEKIRSNRVIELPLRPLLSRDCRDLLQRLLERDPSRRISFQDFFAHPWVDLEHMPSGESLGRATALVVQAVKKDQEGDSAAALSLYCKALDFFVPALHYEVDAQRKEAIKAKVGQYVSRAEELKAIVSSSNQALLRQGTSARDLLREMARDKPRLLAALEVASAAMAKEEAAGGEQDALDLYQHSLGELLLLLAAEPPGRRRELLHTEVQNLMARAEYLKEQVKMRESRWEADTLDKEGLSESVRSSCTLQ
modifications: PEPTIDE (1)..(472) ULK3
B2: ULK3(K139R): kinase-deficient ULK3 mutant with Lysine at position 139 mutated to Arginine (SEQ ID NO:7) (protein)
chain: B1 chain with K139R
modifications: MUTAGEN (1)..(472) mutated ULK3 protein ULK3 (K139R)

Legend:
Format in all cases: cell-based, mouse
[1] = test system: GLI-dependent firefly luciferase activity in Shh-LIGHT2 cells; test: GLI-dependent luciferase assay in Shh-L2 cells; details: for enhancement of transcriptional activity of overexpressed GLI1: cotransfected with GLI1, Shh-L2 cells; for enhancement of transcriptional activity of overexpressed GLI2: cotransfected with GLI2, Shh-L2 cells
Experimental: Cells were transfected by the expression constructs or respective empty vectors using Polyethylenimine transfection agent (PEI) (Inbio) and as described in [28]. We used 0.25 μg of cDNA per 1 cm^2 of plate surface area for transfections. After 3 h of transfection HEK293, NIH3T3 and Cos1 cells were propagated in the normal growth medium for 48 h. Prior the further analysis the cells were washed twice with PBS. Post-transfectional Shh-L2 cells were grown in the normal growth medium for 24 h and for additional 24 h in the Light medium containing 0.25% FBS, washed once with PBS, lysed in Passive Lysis Buffer (Promega, Madison Wis., USA) (70 ul per well of 24-well plate format) and subjected to luciferase assay.
Luciferase assay was performed as previously described. Briefly, firefly luciferase activity of 12 μl of the Shh-L2 cells lysate was measured using Luciferase Assay Kit (Promega) and galactosidase activity was quantified using Galacto-LightPlus kit (Tropix, Bedford Mass., USA) according to the manufacturer's instructions. Chemiluminicence was measured using Ascent FL Fluoroscan (Thermo Electron Corporation, Waltham Mass., USA) according to the manufacturer's instructions.
We cotransfected the constructs together with GLI-expressing plasmids (or respective empty vector) into Shh-L2 cells and assessed their effect on GLI-dependent firefly luciferase activity. The obtained data was normalized with β-galactosidase values. […] It was able to stimulate the luciferase activity 3.8 times and enhanced the transcriptional activity of over expressed GLI1 and GLI2 approximately 2 and 3.2 times, respectively. The potency of STK36 in the assay was much lower.
In order to examine if the kinase activity of ULK3 is required for the luciferase reporter activation we tested the supposed kinase-deficient variants of ULK3, ULK3(K44R) and ULK3(K139R) in the same assay. […] We also tested the effect of ULK3 and the mutants on the luciferase reporter when the SHH pathway was activated by cotransfection with pShhN (plasmid expressing biologically active part of SHH).

[2] = test system: GFP-tagged GLI2 localization in NIH3T3 cells; test: Immunofluorescence assay, subcellular localization of GFP-tagged GLI2; details: coexpressed with GFP-tagged GLI2 in NIH3T3 cells
Experimental: NIH3T3 cells were transfected with GLI1GFP and FLAG-tagged expression constructs for ULK3 or ULK3(K139R) in ratio 1:1 on 8-chamber slides (Falcon, BD Biosciences, San Jose Calif., USA). The cells were fixed with 4% paraformaldehyde and washed three times for 5 min with Stain Wash Medium (SWM) (0.5% BSA and 0.01% NaN3 in PBS). Subsequent permeabilization of cells was performed at RT by 10-min incubation in. PBS supplemented with 0.5% Triton X-100. Afterwards, the cells were washed three times for 5 min with SWM, blocked for 30 min in PBS containing 5% bovine serum albumin (BSA), and incubated with mouse monoclonal M2-anti-FLAG antibody (diluted 1:1000 in SWM) for 1 h at RT with gentle agitation. […] GLI1GFP protein localization was assessed in at least 200 FLAG-positive cells under a fluorescent microscope Olympus BX61 with UPLan SApo 40× objective, and the experiment was repeated three times. […]
Next we examined if overexpression of ULK3 kinase influences the subcellular localization of GLI1 and GLI2 proteins. […] Subcellular localization of GLI1 and GLI2 was determined, and average values were calculated from three independent experiments. […] Overexpressed GLI1GFP was detected both in cytoplasm and nucleus (FIG. 3A). […]

[3] = test system: GLI1GFP localization in NIH3T3 cells; test: Immunofluorescence assay, subcellular localization of GFP-tagged GLI1; details: coexpressed with GLI1GFP in NIH3T3 cells
Experimental: NIH3T3 cells were transfected with GLI1GFP and FLAG-tagged expression constructs for ULK3 or ULK3(K139R) in ratio 1:1 on 8-chamber slides (Falcon, BD Biosciences, San Jose Calif., USA). The cells were fixed with 4% paraformaldehyde and washed three times for 5 min with Stain Wash Medium (SWM) (0.5% BSA and 0.01% NaN3 in PBS). Subsequent permeabilization of cells was performed at RT by 10-min incubation in. PBS supplemented with 0.5% Triton X-100. Afterwards, the cells were washed three times for 5 min with SWM, blocked for 30 min in PBS containing 5% bovine serum albumin (BSA), and incubated with mouse monoclonal M2-anti-FLAG antibody (diluted 1:1000 in SWM) for 1 h at RT with gentle agitation. After three washes of 10 min with SWM, the cells were incubated for 30 min with secondary antibody Alexa-Fluor 568 (Invitrogen) (diluted 1:500 in SWM) mixed with nuclear stain Hoechst 33342 (diluted 1:100). Cells were washed twice with SWM and mounted with Mowiol 4-88 (Sigma-Aldrich). GLI1GFP protein localization was assessed in at least 200 FLAG-positive cells under a fluorescent microscope Olympus BX61 with UPLan SApo 40× objective, and the experiment was repeated three times. Confocal images were obtained with a Zeiss LSM-510 META confocal laser-scanning microscope (Carl Zeiss MicroImaging GmbH, Germany) equipped with Plan-Apochromat 63×/1.4 oil immersion objective.
Next we examined if overexpression of ULK3 kinase influences the subcellular localization of GLI1 and GLI2 proteins. […] FLAG-tagged ULK3 and ULK3(K139R) (or respective empty vector) were coexpressed with GFP-tagged GLI1 and GLI2 in NIH3T3 cells. Subcellular localization of GLI1 and GLI2 was determined, and average values were calculated from three independent experiments. ULK3 and its mutant remained almost completely cytoplasmic. GFP-tagged GLI2 localized predominantly in the nucleus and its localization was not altered by ULK3 or ULK3(K139R) (data not shown). Overexpressed GLI1GFP was detected both in cytoplasm and nucleus (FIG. 3A). […] Under the influence of ULK3 localization of GLI1 was shifted.

Molecule | enhancement of transcriptional activity of overexpressed GLI1 [1] | enhancement of transcriptional activity of overexpressed GLI2 [1] | induction of luciferase activity with activated SHH pathway ([1]; cotransfection with pShhN, Shh-L2 cells) | stimulation of GLI-dependent luciferase activity ([1]; kinase construct alone, Shh-L2 cells, normalized with β-galactosidase) [times] | influence on GLI2 subcellular localization [2] | cells that retained GLI1 in the cytoplasm ([3]; average of three experiments) [%] | cells with GLI1 mostly in the nucleus ([3]; average of three experiments) [%] | cells with uniform distribution of GLI1 ([3]; average of three experiments) [%] | influence on GLI1 subcellular localization [3]
B1 | approximately 2 times | ~3.2 times | approximately 4.1 times | 3.8 | not altered | 2 | 70 | 25 | 
B2 | neither of the mutants had an effect | completely inactive |  |  | not altered |  |  |  | did not influence
